The target in test [1] is T1, human c-MET (human, UniProt P08581 25-1390). The test can be described thus: cell-based or functional assay.
Test [2] concerns the target T1, human c-MET. Briefly: flow cytometry on MKN45 cells (highly express c-MET). The text has this:
(§1) A flow cytometer (Beckman, model Cytoflex) was used to detect the interaction between anti-human EGFR/c-MET bispecific antibodies and their conjugates and human gastric cancer cells MKN45 (Nanjing Cobioer Biosciences) and human gastric cancer cells overexpressing human EGFR MKN45-EGFR (Kelun-Biotech), human lung squamous cell carcinoma EBC-1 (Nanjing Cobioer Biosciences), human lung squamous cell carcinoma EBC-1-EGFR overexpressing human EGFR (Kelun-Biotech), human non-small cell lung cancer cell HCC827 (ATCC™), and human epidermal squamous cell carcinoma cell A431 (Nanjing Cobioer Biosciences). The protocol was as follows.
(§2) The adherent cells were digested with Trypsin-EDTA solution (0.25%) (Shanghai BasalMedia) and the cell density adjusted to 4.0×10⁶ per mL. The cells were washed twice with 1% BSA and resuspended in 1% BSA solution. Then 50 μL cell suspension was added to each well of a 96-well plate (the number of cells was 2×10⁵ per well). The antibody and its conjugate were diluted with 1% BSA (final concentration 10 µg/mL, 3-fold gradient dilution, a total of 11 concentration points). Then 50 μL of the diluted antibody and ADC were added to the wells of the 96-well plate and the plate was incubated at 4° C. for 60 minutes. The wells of the 96-well plate were then washed twice with 1% BSA, 50 μL of diluted secondary antibody was added to each well, and the 96-well plate was incubated at 4° C. for 30 minutes. Then the cells were washed twice with 1% BSA, and the cells were resuspended in 200 μL of 1% BSA and subjected to flow cytometry detection.
For orientation: A flow cytometer gives signals particle by particle.

Another test has as its target T2, human EGFR (human, UniProt P00533 25-1210).
T2 construct: whole, on cells; also called epidermal growth factor receptor; ErbB-1
The test can be described thus: flow cytometry on A431 cells (highly express EGFR).
From the text: as §1
as §2, with “The wells of the 96-well plate were then washed twice with 1% BSA, 50 μL of diluted secondary antibody was added to each well, and the 96-well plate was incubated at 4° C. for 30 minutes. Then the cells were washed twice with 1% BSA, and the cells were resuspended in 200 μL of 1% BSA and subjected to flow cytometry detection.” left out

The values below come from patent publication US20250161474A1 (SICHUAN KELUN BIOTECH BIOPHARMACEUTICAL, published 2025).

As a reminder, the EC50 is the concentration giving half of the maximal effect. A high value points to lower potency in that assay.

T1 sequence (P08581 25-1390): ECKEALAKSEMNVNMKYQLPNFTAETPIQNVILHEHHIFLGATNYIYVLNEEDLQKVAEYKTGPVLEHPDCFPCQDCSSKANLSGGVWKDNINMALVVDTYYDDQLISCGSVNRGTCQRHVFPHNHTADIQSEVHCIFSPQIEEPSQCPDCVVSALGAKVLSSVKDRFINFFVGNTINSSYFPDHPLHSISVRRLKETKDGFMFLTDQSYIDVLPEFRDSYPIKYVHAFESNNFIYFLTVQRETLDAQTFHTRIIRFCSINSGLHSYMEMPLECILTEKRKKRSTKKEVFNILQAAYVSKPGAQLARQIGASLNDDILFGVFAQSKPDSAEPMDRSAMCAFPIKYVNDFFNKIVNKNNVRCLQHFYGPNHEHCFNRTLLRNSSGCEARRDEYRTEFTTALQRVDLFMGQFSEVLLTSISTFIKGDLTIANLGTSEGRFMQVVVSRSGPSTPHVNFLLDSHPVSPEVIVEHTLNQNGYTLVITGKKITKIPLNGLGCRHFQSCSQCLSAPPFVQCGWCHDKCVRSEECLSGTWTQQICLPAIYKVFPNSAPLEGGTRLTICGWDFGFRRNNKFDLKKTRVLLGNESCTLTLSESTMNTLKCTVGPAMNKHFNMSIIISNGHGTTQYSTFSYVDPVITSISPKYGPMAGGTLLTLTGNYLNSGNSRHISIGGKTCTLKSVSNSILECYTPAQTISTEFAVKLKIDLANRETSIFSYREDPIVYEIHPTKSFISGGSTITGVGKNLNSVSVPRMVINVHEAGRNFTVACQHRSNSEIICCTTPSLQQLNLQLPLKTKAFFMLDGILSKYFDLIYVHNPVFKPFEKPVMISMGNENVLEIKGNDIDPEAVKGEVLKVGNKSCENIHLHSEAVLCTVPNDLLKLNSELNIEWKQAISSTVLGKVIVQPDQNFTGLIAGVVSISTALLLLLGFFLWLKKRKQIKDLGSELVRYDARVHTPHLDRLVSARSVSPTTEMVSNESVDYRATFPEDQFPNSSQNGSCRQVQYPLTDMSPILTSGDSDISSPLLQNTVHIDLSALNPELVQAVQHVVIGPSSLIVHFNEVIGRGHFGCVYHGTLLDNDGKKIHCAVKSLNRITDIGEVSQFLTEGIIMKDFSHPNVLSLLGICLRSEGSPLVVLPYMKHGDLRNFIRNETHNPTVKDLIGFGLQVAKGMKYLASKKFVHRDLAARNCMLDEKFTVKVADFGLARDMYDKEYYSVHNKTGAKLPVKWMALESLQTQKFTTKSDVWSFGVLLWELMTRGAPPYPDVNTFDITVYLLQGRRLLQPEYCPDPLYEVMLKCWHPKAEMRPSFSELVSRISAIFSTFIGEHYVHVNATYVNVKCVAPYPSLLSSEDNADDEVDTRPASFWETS

B1: ADC 41B-A-05 (bispecific antibody, human IgG1, kappa, L234A L235A)
light: not shown
heavy: not shown
chain: DIQMTQSPSSLSASVGDRVTITCKSSQSLLYTSSQKNYLAWYQQKPGKAPKLLIYWASTRESGVPSRFSGSGSGTDFTLTISSLQPEDFATYYCQQYYAYPWTFGCGTKVEIKRTVAAPSVFIFPPSDEQLKSGTASVVCLLNNFYPREAKVQWKVDNALQSGNSQESVTEQDSKDSTYSLSSTLTLSKADYEKHKVYACEVTHQGLSSPVTKSFNRGECGGGGSGGGGSGGGGSGGGGSGGGGSGGGGSGGGGSGGGGSEVQLVESGGGLVQPGGSLRLSCAASGYTFTSYWLHWVRQAPGKCLEWVGMIDPSNSDTRFNPNFKDRFTISADTSKNTAYLQMNSLRAEDTAVYYCATYRSYVTPLDYWGQGTLVTVSSASTKGPSVFPLAPSSKSTSGGTAALGCLVKDYFPEPVTVSWNSGALTSGVHTFPAVLQSSGLYSLSSVVTVPSSSLGTQTYICNVNHKPSNTKVDKKVEPKSCDKTHTCPPCPAPEAAGGPSVFLFPPKPKDTLMISRTPEVTCVVVDVSHEDPEVKFNWYVDGVEVHNAKTKPREEQYNSTYRVVSVLTVLHQDWLNGKEYKCKVSNKALAAPIEKTISKAKGQPREPQVCTLPPSRDELTKNQVSLSCAVKGFYPSDIAVEWESNGQPENNYKTTPPVLDSDGSFFLVSKLTVDKSRWQQGNVFSCSVMHEALHNHYTQKSLSLSPGK
modifications: linker-payload A-05 on reduced Cys sulfhydryls (sites not given); DAR of the whole ADC approximately 8
Turning to B1, in the test with human c-MET [1], the “IC50, in vitro cell killing (CCK8) on EBC-1 cells” value is 440 pM and the “IC50, in vitro cell killing (CCK8) on MKN45 cells” value came out at 420 pM. For the same molecule, the EC50 in the test with human c-MET [2] is 690 pM. This molecule came in with an EC50 with human EGFR of 480 pM.
